Substrate in this series: CC1(C)S[C@@H]2[C@H](NC(=O)[C@H](N)c3ccccc3)C(=O)N2[C@H]1C(=O)O
The following applies: Escherichia coli.

Description: Ratio of Kcat to Km for Escherichia coli Beta-Lactamase TEM-1

B1: Beta-lactamase TEM-1 (Escherichia coli), Q4GY26 (protein)
chain: MSIQHFRVALIPFFAAFCLPVFAHPETLVKVKDAEDQLGARVGYIELDLNSGKILESFRPEERFPMMSTFKVLLCGAVLSRVDAGQEQLGRRIHYSQNDLVEYSPVTEKHLTDGMTVRELCSAAITMSDNTAANLLLTTIGGPKELTAFLHNMGDHVTRLDRWEPELNEAIPNDERDTTMPAAMATTLRKLLTGELLTLASRQQLIDWMEADKVAGPLLRSALPAGWFIADKSGAGERGSRGIIAALGPDGKPSRIVVIYTTGSQATMD
Take B1: the kcat/Km amounted to 2.8 ×10⁷ /M/s.

The values are drawn from ChEMBL document CHEMBL1275444, “Fitness trade-offs in blaTEM evolution” (2008).
